{
  "source": "paper PMC4771823",
  "about": "“How the oxygen tolerance of a [NiFe]-hydrogenase depends on quaternary structure” (Journal of Biological Inorganic Chemistry, 2016)",
  "target": "the molecule itself",
  "assay": "SEC; Superdex 200 HR 10/30, running buffer with 0.02 % Triton X-100, pH 7.0, 50 mM sodium phosphate, 0.10 M NaCl, 4 °C, 0.15 mL/min; column calibrated with protein standards; dimer peak run again after 5 days at 4 °C; fractions analysed by SDS-PAGE; (αβ)2 dimer to (αβ) monomers",
  "data": [
    {"protein": "Hydrogenase-1 from E. coli, (αβ) heterodimer of large and small subunit (complex, large (α) subunit of E. coli Hydrogenase-1, holds the [NiFe] active site; printed mass 64.6 kDa; small (β) subunit of E. coli Hydrogenase-1, holds the FeS clusters; printed mass 36.8 kDa; Purified by Ni-NTA, so one subunit should carry a His tag; Cytochrome b subunits are said to be normally lost during homogenisation; Two copies of this heterodimer form the (αβ)2 dimer; also called Hyd-1; Hyd-1 …) chain 1: MSTQYETQGYTINNAGRRLVVDPITRIEGHMRCEVNINDQNVITNAVSCGTMFRGLEIILQGRDPRDAWAFVERICGVCTGVHALASVYAIEDAIGIKVPDNANIIRNIMLATLWCHDHLVHFYQLAGMDWIDVLDALKADPRKTSELAQSLSSWPKSSPGYFFDVQNRLKKFVEGGQLGIFRNGYWGHPQYKLPPEANLMGFAHYLEALDFQREIVKIHAVFGGKNPHPNWIVGGMPCAINIDESGAVGAVNMERLNLVQSIITRTADFINNVMIPDALAIGQFNKPWSEIGTGLSDKCVLSYGAFPDIANDFGEKSLLMPGGAVINGDFNNVLPVDLVDPQQVQEFVDHAWYRYPNDQVGRHPFDGITDPWYNPGDVKGSDTNIQQLNEQERYSWIKAPRWRGNAMEVGPLARTLIAYHKGDAATVESVDRMMSALNLPLSGIQSTLGRILCRAHEAQWAAGKLQYFFDKLMTNLKNGNLATASTEKWEPATWPTECRGVGFTEAPRGALGHWAAIRDGKIDLYQCVVPTTWNASPRDPKGQIGAYEAALMNTKMAIPEQPLEILRTLHSFDPCLACSTH chain 2: LENKPRIPVVWIHGLECTCCTESFIRSAHPLAKDVILSLISLDYDDTLMAAAGTQAEEVFEDIITQYNGKYILAVEGNPPLGEQGMFCISSGRPFIEKLKRAAAGASAIIAWGTCASWGCVQAARPNPTQATPIDKVITDKPIIKVPGCPPIPDVMSAIITYMVTFDRLPDVDRMGRPLMFYGQRIHDKCYRRAHFDAGEFVQSWDDDAARKGYCLYKMGCKGPTTYNACSSTRWNDGVSFPIQSGHGCLGCAENGFWDRGSFYSRVVDIPQMGTHSTADTVGLTALGVVAAAVGVHAVASAVDQRRRHNQQPTETEHQPGNEDKQA", "values": [
      {"measurement": "stoichiometry N", "value": 2}
    ]}
  ]
}
